According to patent US7772181B2, “Personal care compositions comprising modified variant Bowman Birk Protease Inhibitors” (Danisco US Inc., priority 2008, dated 2010):

T1: bovine pancreatic trypsin (Bos taurus, UniProt P00760)
T1 construct: purchased Worthington (Worthington Biochemical Corp.)
T1 sequence (P00760 24-246): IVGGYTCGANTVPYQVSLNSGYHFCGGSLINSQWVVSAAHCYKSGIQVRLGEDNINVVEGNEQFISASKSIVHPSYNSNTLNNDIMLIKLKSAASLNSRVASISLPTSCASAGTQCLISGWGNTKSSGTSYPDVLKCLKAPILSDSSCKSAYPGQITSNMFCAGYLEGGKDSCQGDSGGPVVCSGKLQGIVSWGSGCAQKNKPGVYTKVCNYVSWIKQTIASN


Target: T1, bovine pancreatic trypsin
Test: Shake flask screen: trypsin inhibition after growth, 2-mercaptoethanol activation and acid/heat treatment
Assay type: biochemical
Settings: for trypsin inhibitory activity after activation: alternative scaffolds compared with BBIt-AV
Protocol: To increase expression, the gene copy of the selected clones was amplified by sequentially streaking colonies on Luria agar plates with 25 μg/ml chloramphenicol until the growth rate was similar to growth on Luria agar plates without chloramphenicol. Cultures of the selected variants and controls were grown in 3 ml Luria broth with 25 μg/ml chloramphenicol in 15 ml tubes for ˜10 h. These cultures (30 μl) were then used to inoculate 30 ml of MBD medium in 250 ml baffled shake flasks and grown at 37° C. and 225 rpm for ˜60 h.
For selection of the variants with the best yields, the culture broths were processed as follows. The broth was first activated by mixing 20 ml of broth with 20 ml of 0.25 M glycine buffer (pH 9.3) and the pH was adjusted to 9.0 with 50% NaOH. Then, 2-mercaptoethanol was added to the diluted cultures to a final concentration of 2 mM and the cultures were incubated overnight at room temperature with gentle shaking. The BBIt-AV moiety was then cleaved from the fusion protein by acid/heat treatment, which was accomplished by first adjusting the pH of the activated broth to pH 1.9-2.0 with sulfuric acid, and followed by incubation at 60° C. for 16 hours, with shaking. The BBIt-AV-BCE fusion protein and the BCE catalytic domain are not soluble at pH 2, whereas the free BBI species is soluble. After the cleavage reaction, the insoluble material was removed by centrifugation (5 min. at 3,000 rpm) and the supernatant was analyzed for trypsin inhibitory activity as described above. The BBI activity was also determined for the starting material and for the samples taken after activation. The BCE activity of the starting material was also determined as described above. The BBIt-AV:BCE activity ratios were then calculated for each step in process. The modified BBIt-AVs produced at the highest yields following the acid/heat treatment were selected for further study.

Row | Molecule | yield after acid/heat treatment relative to BBIt-AV-A13I-L29P-A40K-F50T-V52A (SEQ ID NO:601) | other results
1 | BBIt-AV-Q11G-A13I-L29P-A40K-F50T-V52A: modified variant BBPI, SEQ ID NO:614 (protein, synthetic BBPI variant) DPDDESSKPCCDGCICTKSNPPQCRCSDMRPNSCHSACKSCKCYNLYGWTCTCADITDFCYEPCKPSE | significantly lower yields | 
2 | BBIt-AV-S5P-A13I-L29P-A40K-F50T-V52A: modified variant BBPI, SEQ ID NO:613 (protein, synthetic BBPI variant) DPDDESPKPCCDQCICTKSNPPQCRCSDMRPNSCHSACKSCKCYNLYGWTCTCADITDFCYEPCKPSE | significantly lower yields | 
3 | BBIt-AV-A13I-S25R-L29P-S31A-A40K-F50T-V52A: modified variant BBPI, SEQ ID NO:617 (protein, synthetic BBPI variant) DPDDESSKPCCDQCICTKSNPPQCRCRDMRPNACHSACKSCKCYNLYGWTCTCADITDFCYEPCKPSE | significantly better yields | 
4 | BBIt-AV-A13I-L29P-A40K-F50K-V52A: modified variant BBPI, SEQ ID NO:624 (protein, synthetic BBPI variant) DPDDESSKPCCDQCICTKSNPPQCRCSDMRPNSCHSACKSCKCYNLYGWTCKCADITDFCYEPCKPSE | slightly better yields | 
5 | BBIt-AV-A13I-L29P-S31R-A40K-F50T-V52A: modified variant BBPI, SEQ ID NO:622 (protein, synthetic BBPI variant) DPDDESSKPCCDQCICTKSNPPQCRCSDMRPNRCHSACKSCKCYNLYGWTCTCADITDFCYEPCKPSE | significantly better yields | 
6 | BBIt-AV-A13L-L29P-A40K-F50T-V52A: modified variant BBPI, SEQ ID NO:615 (protein, synthetic BBPI variant) DPDDESSKPCCDQCLCTKSNPPQCRCSDMRPNSCHSACKSCKCYNLYGWTCTCADITDFCYEPCKPSE | slightly better yields | 
7 | BBIt-AV-A13I-S25R-L29P-S31R-A40K-F50T-V52A: modified variant BBPI, SEQ ID NO:618 (protein, synthetic BBPI variant) DPDDESSKPCCDQCICTKSNPPQCRCRDMRPNRCHSACKSCKCYNLYGWTCTCADITDFCYEPCKPSE | significantly better yields | 
8 | BBIt-AV-A13I-S25R-L29P-A40K-F50T-V52A: modified variant BBPI, SEQ ID NO:616 (protein, synthetic BBPI variant) DPDDESSKPCCDQCICTKSNPPQCRCRDMRPNSCHSACKSCKCYNLYGWTCTCADITDFCYEPCKPSE | significantly better yields | 
9 | BBIt-AV-A13I-L29K-A40K-F50T-V52A: modified variant BBPI, SEQ ID NO:620 (protein, synthetic BBPI variant) DPDDESSKPCCDQCICTKSNPPQCRCSDMRKNSCHSACKSCKCYNLYGWTCTCADITDFCYEPCKPSE | significantly lower yields | 
10 | BBIsb3-AV: BBsb3 with CK37281 replacing the second protease inhibitory loop, SEQ ID NO:453 (protein, synthetic BBsb3-AV sequence) DPDDEYSKPCCDLCMCTRSMPPQCSCEDIRLNSCHSDCKSCACYNLYGWTCRCLDTNDFCYKPCKSRDD |  | activation with reducing agent (alternative scaffolds): did not activate with reducing agent; trypsin inhibitory activity after activation: very low trypsin inhibitory activity
11 | BBIt-AV-4D13 insert -A13I-L29P-A40K-F50T-V52A: modified variant BBPI, SEQ ID NO:413 (protein, synthetic BBPI sequence) DPDDEPSKPCCDPDPDDESSKPCCDQCICTKSNPPQCRCSDMRPNSCHSACKSCKCYNLYGWTCTCADITDFCYEPCKPSE | slightly better yields | 
12 | BBIdb-AV: BBdb with CK37281 replacing the second protease inhibitory loop, SEQ ID NO:452 (protein, synthetic BBdb-AV sequence) DPSESSKPCCDQCACTKSIPPQCRCTDVRLNSCHSACSSCACYNLYGWTCVCVDMKDFCYEPCK |  | inhibitory activities after acid/heat treatment relative to BBIt-AV (alternative scaffolds): higher inhibitory activities after acid/heat treatment; trypsin inhibitory activity after activation: greater than that of the BBIt-AV inhibitor but less than that of the BBItc-AV inhibitor
13 | BBItc-AV: BBtc with CK37281 replacing the second protease inhibitory loop, SEQ ID NO:454 (protein, synthetic BBtc-AV sequence) DPSSKWEACCDRCACTKSIPPQCHCADIRLNSCHSACESCACYNLYGWTCRCFDITDFCYKPCSG |  | inhibitory activities after acid/heat treatment relative to BBIt-AV (alternative scaffolds): higher inhibitory activities after acid/heat treatment; trypsin inhibitory activity after activation: highest trypsin inhibitory activity after activation
